For 2 molecules, response (% of total protein) results are on record in doi:10.1101/2025.05.16.654433.

For this assay, the target named is T1, GSP-2 (C. elegans PP1 homolog), as found in the MudPIT immunoprecipitations, P48727.
T1 chain: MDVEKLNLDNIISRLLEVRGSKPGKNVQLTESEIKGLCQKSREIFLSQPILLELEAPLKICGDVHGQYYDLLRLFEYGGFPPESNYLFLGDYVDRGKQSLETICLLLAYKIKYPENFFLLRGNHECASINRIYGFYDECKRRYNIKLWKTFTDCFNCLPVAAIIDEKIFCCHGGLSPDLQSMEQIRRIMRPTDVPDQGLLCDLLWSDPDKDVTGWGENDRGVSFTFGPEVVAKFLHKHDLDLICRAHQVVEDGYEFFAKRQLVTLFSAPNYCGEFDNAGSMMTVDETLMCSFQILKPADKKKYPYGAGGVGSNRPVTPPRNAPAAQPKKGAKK
The assay is described as follows: MudPIT analysis of 3xflag immunoprecipitations. Particulars: chain shown with the change, whole-worm lysates, parent: 10.79.

Positions count from the first letter of the chain named. Names and notes keep the numbering of the source.

B1: APE-1 (C. elegans ASPP homolog), 3xflag-tagged, as in the MudPIT immunoprecipitations, Q9XVN3 H591Y (protein)
chain: MVTTSSGGGIGYPANNGVTQVSLIHSSDSVRTVSTAPIYRPTSSMASTMAHKSSTAPFISANQRMSKPPVRVVAQPPPPHPQALSQQYHQQNPMMMYSAPNTRPHVIPTMQVQPTMAAQIKRNNPVNAQFQNPSEMIADYGVKPQSVEMVQRVRAVRRQVADEETELRRLRELEHETAQLQNKNYGRERELNVQGSMLKEAQLELRNASMRAQSLNKHLEEMYRRRQTAAAAALVEQRKMQQHQILLARAANQVSTQEVIRPRASVEPFQVNNTQQQQPSPQMMKSEEFSEKRDLNGQTGSYDAIDGSGDHQKIPTEPSYLAPCKENQQKYSELSKMASTDPHSNHSSPSTSSQKAPTLITFSPPSFEQKINSSTMTRDSPFVERPTSFGDSLDESRLRSGKTDLVSLRSDSLKATKRRSWAASEGTSMSEAEMIHRLLDEQRRGRSHFIPQLPTSQEEPSAITSETYAEEVVNSESKQVATSSDSTNNLELPTEQMVLGSDTTTEEDASSCSTRSDDGQNLEMEVAIERRTVKGILRRPNEKMNKGRIEFDPLALLLDAALEGELDLVRSSASKLTDVSQANDEGITALYNAICAGHYEIVRFLIENDADVNAQDSDGWTPLHCAASCNNLPMVRQLVEGGGCVLASTLSDMETPVEKCEEDEDGYDGCLKYLSAAHNSTGSINTGKVYAAYGYEAAFEDELSFDAGDELTVIEKDKVDKNWWTCEKNNGEKGQVPRTYLALYPSLKYRKKLNFVMFDLPLESNNNVE
Regarding B1, the response (% of total protein) (bait recovered in same sample 0.12 (mutant) vs 0.54 (wild type) % of total protein) turned out to be 0.87.

B2: APE-1 (C. elegans ASPP homolog), 3xflag-tagged, as in the MudPIT immunoprecipitations, Q9XVN3 N583K (protein)
chain: B1 chain with N583K, Y591H
In the case of B2, for the setting “bait recovered in same sample 0.22 (mutant) vs 0.54 (wild type) % of total protein”, the response (% of total protein) turned out to be 0.87.
